Measurements reported in the DeepSol protein solubility set.

Assay: soluble on expression in E. coli; label from the status in PepcDB or PDB records

Sequence	soluble on expression in E. coli
MSLSRSLSECIDQGRGLVPADLVLKHGRVFDLVTGELVQTDVAICGDRIVGTFGTYTGRREIDCRGRILVPGFIDTHLHVESSLVTPFEFDRCVTPRGITTAICDPHEIANVCGLEGIRYFLEASAHLVMDLRVQLSSCVPSTHMETAGAALEAKDLAPLMDHPRVIGLAEFMNFPGVLMKDPGCMAKLEAFRGRHIDGHAPLLRGKDLNGYIAAGIRTEHEATTAEEALEKLRKGMRVLIREGSVSKDLHALVSILTERHAPYLCLCTDDRNPLDIAEHGHIDHMIRTAIRLGAPPLAVYRAASLSAADAFGLKDRGLIAPGRRADIAVLDSLEGCHAALVLAGGVVADDAAFSARSDIEPVARASVKVAEIAPEAFRCPGNRADTPVIGILPGKIITEHLTAEIEPVDGDKRPDPVRDLARIAVIERHGKTGGRATGFVRGFGMARGAIASTVCHDHHNLAVVGIDYADMALAANRLRALEGGFAVAAGGEILAELALPVGGLMSLRPFEEVRDALVTLREAARSLGVTLEEPFLQLAFLALPVIPHLKITDRGMVDVDRFEILEGHHHHHH	soluble
MSLSSGGGQFIKPASGILTSGFSERTNPVTGKYESHKGQDIAGGGTVTVSAAASGTVVFSGFGASGSGFGGYGYVVKIDHGNGFQTLYGHMRAGSLKVVTGQQVSQGQPIGIMGSTGQSTGQHLHFEIHKNGIPVDPAPYIEGHHHHHH	soluble
MSLSSKLRLQLDAHASIHENVRRLLQFTTSIMEANEEGIRKDIDSEFLHDFRVAIRRSRSILRLLNGVFDPEKTAWMLAGLRELGKRTNDLRDSDVYLLRREEYTSLLPPSLRPALDPFFSDLEADKRLHHRQFCRYLTGREYSGFMTSLKEFIAEGELPDPETAPLAAEPTGDVAAKTIRKALKKVLVHGRRTGSETSDAELHELRIDCKKLRYLLEFFASLFPPKATAQVLRQMKTLQDNLGTFVDLTVQMEFLQSRLETIPADRGGISEAAAIGGLLTTLYRKREKVREHFHEIFSGFDSNETGELFDELLTGLAEGHHHHHH	soluble
MSLSSTFSARGPLLTAAVLLVGLLAGCASSQSATAPSPDDSGQAQSPAQNETGENGLKPFGDVVPDTARTDPGLLTTHRFDGKLYVEIPDSLIGRELLMVSRAAQTPDGFGYGGEKTATQVLRWQRRGDQLYLRVVSHEDMAQEDDPVYQAVQNSNLEPIIQSFSIEALNEDSTGVVAEVTDLFTSDVPSLGIPSAAREEYRVRRLDGDRTYIKGVESFPENTDIEAVLTYQAENPPSNASTKTLTVSMNHSMVLLPKEPMQPRLCDDRVGYFSVERVNYSSDEQRATEACFITRWKLEPKDPEAYARGELVEPKEPIVYYIDPATPKKWRPYLKQGVEAWQSTFREAGFKNAIIAKDPPSAEEDSTFDPDDIRYSTIRYFASEVQNAYGPHVHDPRSGEILESDIGWYHNVMNLLRNWYFVQTAAVNPEARKPVFSTEVMGKLVRFVAAHEVGHTLGLPHNMGSSNAVPVDSLRSPSYTADHGTAPSIMDYARFNYVAQPGDGVENFLPRIGTYDEWAVRWGYTKRPTGSPEEQAQTLDEMILEHTDDPRYFFGASGSIDPRSQSEDLGRDAMEASRLGIANLKRILPNLIQWTSRDGEGYATLEELYGAVVNQWRRYMGHVSQHLGGVHETPKTYGQEGPVYEPVSATDQERAVDFLLTHAFETPTWMVEADVLRRIEHAGALERVREAQVGVLDGVLDPERMARMLEAEAMSEDDVYGVGDLFGDLRGGVWAELESGSVIDPYRRNLQRGYLERLDYLMTAEVEAPPPEYQQYIDYTPVDVSQSDIRPYVRAELKTLRDDVQQGLRRTTDETTEMHLQDVLARIDQTLNGTEGHHHHHH	not soluble
MSLSTGDASGAPAVWSHGYTEASGVKNKLCVAALSVNNFCDNREALYGVFDGDRNVEVPYLLQCTMSDILAEELQKTKNEEEYMVNTFIVMQRKLGTAGQKLGGAAVLCHIKHDPVDPGGSFTLTSANVGKCQTVLCRNGKPLPLSRSYIMSCEEELKRIKQHKAIITEDGKVNGVTESTRILGYTFLHPSVVPRPHVQSVLLTPQDEFFILGSKGLWDSLSVEEAVEAVRNVPDALAAAKKLCTLAQSYGCHDSISAVVVQLSVTEDEGHHHHHH	soluble
MSLSTMGPLGGISVIFDLDGTLVDSEPHYYEAGRRTLAEYGVPDFSWADHEAYVGISTQETVADWKRRYGLRATVEELLAVKNRHYLGLARTSARAYPEMRKFVELLAGEGVPMAVASGSSPEAIAAILARTGLDAHLRTVVSADEVARGKPAPDVFLEAARRLGTEPARCVVLEDAAPGAAAAHAAGMRCIAIPYVSGQADAPEFATAELLVRGGQEEFTARAAHDWLRTDGNATRETEGHHHHHH	soluble
MSLSTYILNTNDKARERLSLQHQLYAKSSLDLLSEVGPSAAMTALEIGCGSGDMTLELAKLIGREGSLLTIDLSQDQLDHTQQRTRTYSNIRFKVWDVNHLSDLGEKFDLIYCRMVLHHVADARSVILQMKNCLNSGGFVVCEEPSLFDSTFCSPPSPSYDQFTQWARSCFSKSNRDFQIAHRLEQEFSSCGFEIEHCSLFQPLLRTNKEKLIYSMALDDLTPQLLELGIAKREEIKQLHNELEDLAKTNSTMCWIRMHKIIAKLNEGHHHHHH	soluble
MSLSVFDLFKIGIGPSSSHTVGPMRAAARFAEGLRREGLLEATASIKVELYGSLGATGKGHGSDKAVLLGLEGEQPDTVDTAAIPARLDAIRSSGELRLLGERPIRFVEKEHLALIRKPLAYHPNGMIFRAFDAAGLQVRSREYYSVGGGFVVDDEAAGLDRIVEDRTPLAFPFKTARQLLDHCAREGLSISQLMAENEKAWRPAEETRTGLLRIWQVMQDCVEAGCRNEGIMPGGLKVRRRAAALHRQLCQRPEAGLRDALSVLDWVNLYALAVNEENASGGRVVTAPTNGAAGIIPAVLHYYARFIPGADDDGVVRFLLTAAAIGILYKENASISGAEVGCQGEVGVACSMAAGALCEVLGGSVQQVENAAEIGMEHNLGLTCDPVGGLVQVPCIERNAMASVKAINAARMALRGDGQHFISLDKVIRTMRQTGADMKSKYKETARGGLAVNIIEC	not soluble
MSLSVNSRILWVDLENSPHVPFFKPIIEELEKHGYRVVITARDCFQVCGLADLYGLPYTRIGRHYGKHKALKVVGAVIRALQMRNTLARPLPSLAIAHGSRSQLLAAKILHIPALQLADYEFSNKMPSFLSSDWIMVPETIPAGLHWRNTSRISTYPGIKEDVYVPTFKPQTGILSELGILEKEIVVTIRPPASEAHYHNPKSDDLFYATVNWLSGIDNLRMVVLPRNSSQAAHIGKTWPALIGEAKMVIPDRVLDGLNLIWHSDLVISGGGTMNREAAALGVPVYSIFKGEIGAVDKYLASTGRLTLLETADDITNKVLIQKWERPSSPDHNPRPALKVIVDKILELVEGHHHHHH	not soluble
MSLSVTIFSEFESEVRSYCRAFPAVFSRAKGEYLLAEDGRKFLDFFAGAGSLNYGHNDDDMIEAAISYMRQDGVLNGLDLNTSAKAEFIETFRTLVLQPRDLNYKLQFTGPTGANAVEAAMKLARKVTQRPDIACFSGGYHGMSLGALSVTANAVKRASLVVQVPGVVRLPYEGAIEGSVASQLRVLQDMLCRPGFGIDPPAAFLLECVQGEGGVNCASAEWLQGVAALARKLGALLIVDEIQTGCGRTGRFFSFEHACIEPDIICLSKSLGGGGLPFSLNLIKPEIDIWNPGEHNGTFRGNNLAMVMATAALRKYWATPHFAHEVEEKGLAVAACLKNALQAFDGQVRVVGKGLMIGLRFQHAEHAREASRRLFESGLLIEVCGPRNEVLKLMPVLTMDRQAMLAAASRIAACAQALLSRSLESETEGHHHHHH	soluble
MSLSYLLALDAGTGSIRAVIFDLNGRQLAVGQAEWKHLSVDNVPGSMEFDLTTNWQLACQCIRQALDAARLSAADIQSVACCSMREGIVLYDRNGEAIWACANVDARASREVAELKEIHDFRFESEVYEVSGQTLALSAMPRLLWLAHHRPDIYRKAATITMISDWLAAKLSGELAVDPSNAGTTGMLDLFSRDWRPALLDMAGLRADMLSPVKETGTLLGAVTEAAAQQSGLRAGTPVVMGGGDVQLGCLGLGVVRAGQTAVLGGTFWQQVVNLPQVRTDPQMNIRVNPHVIPGMAQAESISFFTGLTMRWFRDAFCAEEKLIAERLGVDAYSLLEEMASRVPAGSHGVMPIFSDAMHFKQWYHAAPSFINLSIDPEKCNKATLFRALEENAAIVSACNLAQISQFSGVTFESLVFAGGGSKGALWSQILSDVTGLPVRVPVVREATALGCAIAAGTGAGLYDDMASTGERLVSWHREFTPNPQHRELYQEMMSKWQTVYADQLGLVDSGLTTSMWQAPGLERRQRVASSPSEGHHHHHH	soluble
MSLTARRFLNELADLYGVATSYTDYKGAHIEVSDDTLVKILRALGVNLDTSNLPNDDAIQRQIALFHDREFTRPLPPSVVAVEGDELVFPVHVHDGSPADVHIELEDGTQRDVSQVENWTAPREIDGIRWGEASFKIPGDLPLGWHKLHLKSNERSAECGLIITPARLSTADKYLDSPRSGVMAQIYSVRSTLSWGMGDFNDLGNLASVVAQDGADFLLINPMHAAEPLPPTEDSPYLPTTRRFINPIYIRVEDIPEFNQLEIDLRDDIAEMAAEFRERNLTSDIIERNDVYAAKLQVLRAIFEMPRSSEREANFVSFVQREGQGLIDFATWCADRETAQSESVHGTEPDRDELTMFYMWLQWLCDEQLAAAQKRAVDAGMSIGIMADLAVGVHPGGADAQNLSHVLAPDASVGAPPDGYNQQGQDWSQPPWHPVRLAEEGYIPWRNLLRTVLRHSGGIRVDHVLGLFRLFVMPRMQSPATGTYIRFDHNALVGILALEAELAGAVVIGEDLGTFEPWVQDALAQRGIMGTSILWFEHSPSQPGPRRQEEYRPLALTTVTTHDLPPTAGYLEGEHIALRERLGVLNTDPAAELAEDLQWQAEILDVAASANALPAREYVGLERDQRGELAELLEGLHTFVAKTPSALTCVCLVDMVGEKRAQNQPGTTRDMYPNWCIPLCDSEGNSVLIESLRENELYHRVAKASKRDEGHHHHHH	soluble
MSLTARVIALDLDGTLLTPHKTLLPSSLDALSRAKEAGFQLIIVTGRHHVAIHPFYQALALETPAICCNGTYLYDYQAKTVLDADPMPVDKALQLIDLLDEHQIHGLMYVDDAMLYEHPTGHVVRTSRWAQTLPPEQRPTFAQVSSLAQAARDVNAVWKFALTDEDIPKLQRFGQHVEQALGLECEWSWHDQVDIARKGNSKGKRLTQWIEAQGGSMKNVIAFGDNYNDISMLEAAGTGVAMGNADEAVKARADVVIGDNTTDSIAKFIYTHLLEGHHHHHH	soluble
MSLTDRIFINAVDAGGQPIHLVVRDGRFIAIGADCAAAPGAETIDLDGRVVLPGFVDGHIHLDKSFVGDRWVPHEPVGTLRERLAVEKRQLAAAPPIVERANALIAQAAAFGTVAMRSHVDVDATTGLSNLQAVMAAREQWRGIVDIELVAFPQAGVVTCPGTAEILDVAVREGADVVGGIDPTTLDGDADGQLDIVFGIAEKRGAKIDIHLHEPGETGIAQLLRIAARTRAAGLGGRVNVSHAYALGQVSDGDVQRTAAALAEAGVSILTNAPGDCAFPPVQALRDAGVHVFAGNDNIRDAWWPYGNGDMLQRAMMVGYRSGFYTDEALGIALDMATHAGARVIGKDNYGIAVGRDATFVAVRAPNAAAAVAGVPAERWVFRRGESDTGAPFAPALRFTREGHHHHHH	soluble
MSLTEDLNKRVEQAAQGITPQTKPDERRRYLGSLRERVLVRLNNTEVKDPKLTALFLKHITDFKGYTILINGNITDDGFLGEVEAACSKEDIPFTLVNNETAKTGPEDTAILVVAKTAINHPRVEINQVYPPEMPKTELSAPSKKHESFWHHLFHKDEGHHHHHH	soluble
MSLTEFWNSFSNLFTGGRSTNRKIILVLLIMVLSSGVCSADNYVGGIPLTSAHSGTVSGGVYCDSYYGMGDQEAKASNTIEKTFTVPDNANVEWAMLLTNVYCGHMQNNYQGKAKVDFNGKNLGTETLNVPYTYSYNGGNGHVQVNDHVNRVTSDYMMYYDVTGLVKAGKNTAVVKTDPLDSSFDGRIRLVTLVVAYNDGSKKTIWYQVNRGHDADSYYSDDEMNENYIGSTAFQAALPEGSSLTDSKLTLVYQASSDGAYAFNGNALSSGTPQGTFSGSNTWDVKDSLKSSGTNTLTYDRTASFYKSVLGILTAEYTTSSSGDSTDDTPADNEGHHHHHH	soluble
